Test results from patent US20110111461A1 (Hoffmann-La Roche, published 2011).
Changes are numbered by the printed parent chain.

Tests used:
[1] = target: T1, human epidermal growth factor receptor (EGFR) (human, UniProt P00533 25-1210); assay: flow cytometry on A431 cells; light chain variants paired with I-HHD
T1 construct: whole, on cells; also called HER-1; ErbB1
Description: (§1) The purified, monomeric humanized antibody variants were tested for binding to human epidermal growth factor receptor (EGFR, also referred to in the literature as HER-1 or ErbB1) on the A431 human epidermal cell line, using a flow cytometry-based assay. 200,000 cells (e.g., from human A431 cell line) in 180 μl FACS buffer (PBS containing 2% FCS and 5 mM EDTA) were transferred to 5 ml polystyrene tubes and 20 μl 10 fold concentrated anti-EGFR antibody (primary antibody) samples (1-5000 ng/ml final concentration) or PBS only were added. After gently mixing the samples, the tubes were incubated at 4° C. for 30 min in the dark. Subsequently, samples were washed twice with FACS buffer and pelleted at 300×g for 3 min. Supernatant was aspirated off and cells were taken up in 50 μl FACS buffer and 2 μl secondary antibody (anti-Fc-specific F(ab′)2-FITC fragments (Jackson Immuno Research Laboratories, USA)) was added and the tubes were incubated at 4° C. for 30 min. Samples were washed twice with FACS buffer and taken up in 500 μl of FACS buffer for analysis by Flow Cytometry. Binding was determined by plotting the geometric mean fluorescence against the antibody concentrations.
Each of the I-KC variant constructs (I-KCl to I-KC9) was paired with a heavy chain variable region comprising construct I-HHD (SEQ ID NO:16 and SEQ ID NO:15) and a binding assay performed according to the methods described in the previous examples. Constructs I-KCl to I-KC9 were compared to the I-KC construct (SEQ ID NO:46 and SEQ ID NO:45) for binding affinity to EGFR in A431 target cells (FIG. 29). […] Therefore, when paired with a chimeric (e.g., humanized) heavy chain construct specific for EGFR, the light chain can be entirely human (e.g., from a human light chain V gene sequence) and still retain specific binding for EGFR. In particular, CDR2 and CDR3 can be entirely in human germline form.

[2] = target: T1, human epidermal growth factor receptor …; assay: flow cytometry on A431 cells; chain swap with ch-ICR62 (FIG. 1)
Description: as §1
Only the I-HHA has strongly diminished binding activity (see FIG. 2). […]

[3] = target: T1, human epidermal growth factor receptor …; assay: flow cytometry on A431 cells
Description: as §1
Only the I-HHA has strongly diminished binding activity (see FIG. 2). […] In this experiment, either the light chain, the heavy chain or both chains simultaneously of the ch-ICR62 were replaced by the above mentioned humanized constructs.

[4] = target: T1, human epidermal growth factor receptor …; assay: flow cytometry on A431 cells (FIG. 4)
Description: as §1
FIGS. 4 and 5 compare the constructs of the series I-HLA1, I-HLA2, I-HLA3, I-HLA4, I-HLA5, and I-HLA6. […]

B1: humanized ICR62 antibody I-HHD / I-KC3 (antibody, human IgG1, V domains shown)
VH: QVQLVQSGAEVKKPGSSVKVSCKASGFTFTDYKIHWVRQAPGQGLEWMGYFNPNSGYSTYAQKFQGRVTITADKSTSTAYMELSSLRSEDTAVYYCARLSPGGYYVMDAWGQGTTVTVSS
VL: DIQMTQSPSSLSASVGDRVTITCRASQGINNYLGWYQQKPGKAPKRLIYNTNNLQTGVPSRFSGSGSGTEFTLTISSLQPEDFATYYCLQHNSFPTFGQGTKLEIKR
[1]
  EC50 fold increase relative to the I-KC construct: 10 fold

B2: humanized ICR62 antibody I-HHD / I-KC4 (antibody, human IgG1, V domains shown)
VH: B1 VH
VL: B1 VL with G34N, N50T
[1]
  binding result: binds

B3: humanized ICR62 antibody I-HHD / I-KC5 (antibody, human IgG1, V domains shown)
VH: B1 VH
VL: B1 VL with G34N, T51A
[1]
  binding result: binds

B4: humanized ICR62 antibody I-HHD / I-KC6 (antibody, human IgG1, V domains shown)
VH: B1 VH
VL: B1 VL with G34N, N52S
[1]
  binding result: binds

B5: humanized ICR62 antibody I-HHD / I-KC7 (antibody, human IgG1, V domains shown)
VH: B1 VH
VL: B1 VL with G34N, N53S
[1]
  binding result: binds

B6: humanized ICR62 antibody I-HHD / I-KC8 (antibody, human IgG1, V domains shown)
VH: B1 VH
VL: B1 VL with G34N, T56S
[1]
  binding result: binds

B7: humanized ICR62 antibody I-HHD / I-KC9 (antibody, human IgG1, V domains shown)
VH: B1 VH
VL: B1 VL with G34N, F94Y
[1]
  binding result: binds

B8: chimeric ICR62 heavy chain (rVH) combined with the I-KB light chain (antibody, human IgG1, V domains shown)
VH: QVNLLQSGAALVKPGASVKLSCKGSGFTFTDYKIHWVKQSHGKSLEWIGYFNPNSGYSTYNEKFKSKATLTADKSTDTAYMELTSLTSEDSATYYCTRLSPGGYYVMDAWGQGASVTVSS
VL: B1 VL with R24K, G28N, G34N, F71Y
notes: also called rVH / I-KB
[2]
  binding result: binds

B9: chimeric rat-human ICR62 antibody (antibody, V domains shown)
VH: B8 VH
VL: DIQMTQSPSFLSASVGDRVTINCKASQNINNYLNWYQQKLGEAPKRLIYNTNNLQTGIPSRFSGSGSGTDYTLTISSLQPEDFATYFCLQHNSFPTFGAGTKLELKR
notes: also called ch-ICR62; chimeric ICR62
[3]
  EC50: ~0.3 µg/mL
[4]
  EC50 fold lower relative to I-HLA4: 2 fold
